This assay concerns the target T1, nitrated major birch pollen allergen Bet v 1.0101 (Betula verrucosa), P15494.
T1 chain: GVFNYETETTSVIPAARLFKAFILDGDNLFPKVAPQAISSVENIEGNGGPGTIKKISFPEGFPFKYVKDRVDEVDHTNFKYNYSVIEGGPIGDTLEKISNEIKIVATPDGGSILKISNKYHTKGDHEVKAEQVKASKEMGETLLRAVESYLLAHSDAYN
The assay can be described thus: SEC + other: Western blot; data not shown; high performance size exclusion chromatography and Western blot analysis of Bet v 1 nitro. Particulars: remark: other sources report otherwise. For orientation: A western blot detects proteins with antibodies after separation by electrophoresis.

The values that follow come from PMC3279363.

“And” between values parts separate entries of the source, which are not always exact repeats. Identical values can stand only once.

B1: nitrated major birch pollen allergen Bet v 1.0101, P15494 2-160 (natural protein)
chain: T1 chain
modifications: here or on the partner: nitrotyrosine: 58.1% of all tyrosine groups within one protein molecule were nitrated (tetranitromethane); all tyrosine residues nitrated to some extent; nitrotyrosine: 58.1% of all tyrosine groups within one protein molecule were nitrated (tetranitromethane); all tyrosine residues nitrated to some extent
For B1, the stoichiometry N (in general, a count of units in the complex or per binding partner) was 2 and 3.
